Read-outs that look alike come from different tables or passages of the source.

For assay [1], the target named is T1, W369-hPro2.ECD.His, IL2Rβ ECD (human, UniProt P14784 27-239).
T1 construct: Entry includes linker and C-terminal 6xHis tag; also called CD122
T1 sequence: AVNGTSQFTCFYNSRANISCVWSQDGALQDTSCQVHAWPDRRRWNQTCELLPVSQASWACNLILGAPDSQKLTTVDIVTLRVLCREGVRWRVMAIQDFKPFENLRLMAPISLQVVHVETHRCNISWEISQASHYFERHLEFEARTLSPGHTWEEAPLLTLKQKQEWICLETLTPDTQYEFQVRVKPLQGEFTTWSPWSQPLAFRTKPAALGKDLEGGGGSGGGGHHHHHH
In words: SPR Biacore 8K; set-up for IL-2Rβ not described. In general terms: SPR reads the build-up and loss of mass on a sensor chip optically.

The target in assay [2] is T2, Human IL-2Rα/β/γ complex (high affinity IL-2 receptor) (human, UniProt P01589 22-272; P14784 27-551; P31785 23-369).
T2 construct: whole, on cells
T2 sequence (looked up) 1: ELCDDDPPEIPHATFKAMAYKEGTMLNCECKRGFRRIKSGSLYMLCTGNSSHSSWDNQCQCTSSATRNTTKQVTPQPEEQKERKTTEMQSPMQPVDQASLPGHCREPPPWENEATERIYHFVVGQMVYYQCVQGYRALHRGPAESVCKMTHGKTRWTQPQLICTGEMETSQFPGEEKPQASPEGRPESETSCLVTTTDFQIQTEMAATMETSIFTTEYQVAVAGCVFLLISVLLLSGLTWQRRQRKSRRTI
T2 sequence (looked up) 2: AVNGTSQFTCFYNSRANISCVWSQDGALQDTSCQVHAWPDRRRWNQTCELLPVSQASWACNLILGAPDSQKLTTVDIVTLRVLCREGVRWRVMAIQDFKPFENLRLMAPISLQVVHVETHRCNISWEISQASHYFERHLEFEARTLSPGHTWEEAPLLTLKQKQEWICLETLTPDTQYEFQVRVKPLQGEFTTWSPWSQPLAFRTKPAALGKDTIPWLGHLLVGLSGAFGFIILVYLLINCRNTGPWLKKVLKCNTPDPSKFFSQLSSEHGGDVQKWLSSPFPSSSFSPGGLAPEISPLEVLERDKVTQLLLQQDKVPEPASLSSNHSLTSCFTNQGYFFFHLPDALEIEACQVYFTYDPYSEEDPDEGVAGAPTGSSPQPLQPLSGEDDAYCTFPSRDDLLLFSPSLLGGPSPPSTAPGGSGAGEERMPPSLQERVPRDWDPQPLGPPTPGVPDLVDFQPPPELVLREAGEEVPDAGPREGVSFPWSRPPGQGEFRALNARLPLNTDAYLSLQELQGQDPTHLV
T2 sequence (looked up) 3: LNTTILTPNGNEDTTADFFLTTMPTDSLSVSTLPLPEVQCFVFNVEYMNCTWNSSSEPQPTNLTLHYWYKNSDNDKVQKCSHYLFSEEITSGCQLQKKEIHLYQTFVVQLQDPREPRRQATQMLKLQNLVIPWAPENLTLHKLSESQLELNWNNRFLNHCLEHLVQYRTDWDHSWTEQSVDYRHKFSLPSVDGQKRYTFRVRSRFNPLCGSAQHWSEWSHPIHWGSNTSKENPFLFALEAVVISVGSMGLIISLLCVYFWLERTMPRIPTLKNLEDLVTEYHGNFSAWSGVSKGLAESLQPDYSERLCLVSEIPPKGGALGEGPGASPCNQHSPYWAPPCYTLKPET
In words: FACS, MJ20 cells. As to the method:
(§1) Human cutaneous T cell lymphoma HH cells, malignant non-Hodgkin's lymphoma NK92 cells and cutaneous T cell lymphoma MJ20 cells were used for binding assay. They both constitutively express IL-2Rβ (CD122) and […] (CD132), and NK92 and MJ20 also expresses IL-2Rα (CD25). HH, NK92 and MJ20 cells were cultured following ATCC guidance, then transferred to a 96-plate for binding analysis. Cells were incubated with IL-2/Fc fusion proteins at the indicated concentrations for 30 min at 4° C. to avoid internalization. Binding was detected by 2nd antibody of PE-anti-human Fc at 4° C. for another 30 min. The median fluorescence intensity (MFI) on HH and NK92 cells was measured using FACS.

Assay [3] addresses T2, Human IL-2Rα/β/γ complex (high affinity …). In words: cell-based or functional assay.
In assay [4] the target is T3, Human IL-2Rβ/γ (intermediate affinity IL-2 receptor) (human, UniProt P14784 27-551; P31785 23-369).
T3 sequence (looked up) 1: T2 sequence (looked up) 2
T3 sequence (looked up) 2: T2 sequence (looked up) 3
As to the kind of experiment: cell-based or functional assay.

In assay [5] the target is T2, Human IL-2Rα/β/γ complex (high affinity …). In words: FACS, MJ20 cells; EC50 fold vs T2U0.E44-1. As to the method: as §1
Mutations of F42 or R38 were involved in T2U0.E44-26 to generate IL-2 variants.
Background: Flow cytometry measures light scatter and fluorescence of single cells or particles in a stream.

For assay [6], the target named is T3, Human IL-2Rβ/γ (intermediate affinity …). In words: FACS, HH cells. The procedure, abridged: (§2)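 IL-2/Fc fusion proteins were incubated with cells for 30 min at 4° C. to prevent internalization, then bound protein was detected with PE-anti-human Fc for 30 min at 4° C. Median fluorescence intensity was read by FACS. HH cells express IL-2Rβ and γ; NK92 and MJ20 also express IL-2Rα.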

Assay [7] has the same target. In words: FACS, HH cells; EC50 fold vs T2U0.E44-1. The procedure, abridged: as §2
The target in assay [8] is T4, W3XX115-hPro1.ECD.His, IL2Rα ECD (Homo sapiens (Human), UniProt P01589 22-213).
T4 construct: Entry includes the C-terminal 6xHis tag; also called CD25
T4 sequence: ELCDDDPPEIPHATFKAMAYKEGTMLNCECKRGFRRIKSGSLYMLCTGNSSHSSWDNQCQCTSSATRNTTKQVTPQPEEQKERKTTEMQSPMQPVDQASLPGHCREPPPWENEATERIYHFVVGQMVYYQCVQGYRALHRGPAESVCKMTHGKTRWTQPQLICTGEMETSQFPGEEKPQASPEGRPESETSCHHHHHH
As to the kind of experiment: SPR Biacore 8K. As for the experimental part:
(§3) IL-2 variants binding affinity to IL-2 receptor were detected by SPR using Biacore 8K. For IL-2Rα binding assay, each variant was captured on anti-human Fc immobilized CM5 sensor chip (cytiva). W3XX115-hPro1.ECD.His at different concentrations were injected over the sensor chip at a flow rate of 30 uL/min for an association phase of 60 s, followed by 90 s dissociation. The chip was then regenerated by 10 mM Glycine-HCl pH1.5 after each binding cycle. For IL-2Rγ binding assay, IL-2 variants were mixed with W369-hPro2.ECD.His as 1:1 before assay, were detected by SPR using Biacore 8K. W3XX115-hPro1.ECD.His was captured on anti-His immobilized CM5 sensor chip (cytiva). The mixture were injected over the sensor chip as described above. The sensorgrams of blank surface and buffer channel were subtracted from the test sensorgrams. The experimental data was fitted by steady state affinity model. Molecular weight of W3XX115-hPro1.ECD.His or W369-hPro1.ECD.His was used to calculate the molar concentration of analyte.
(§4) For T3U0.E44-1 and T2U0.E44-33, no binding to IL-2Rα was detected.

For assay [9], the target named is T4, W3XX115-hPro1.ECD.His, IL2Rα ECD. As to the kind of experiment: SPR Biacore 8K; variant captured via anti-human Fc, IL-2Rα ECD-His injected; steady state. As for the experimental part:
as §3, §4

In assay [10] the target is T3, Human IL-2Rβ/γ (intermediate affinity …). As to the kind of experiment: cell-based or functional assay. The source holds these as a separate data set.
Assay [11] shares this target. As to the kind of experiment: FACS, HH cells. As for the experimental part: as §1
(§5) IL-2 variants of T2U0.E44-6 and T2U0.E44-26 were used to construct bivalent variants W3XX115-T2.Z20-1.uIgG4V322 and W3XX115-T2.Z20-2.uIgG4V322 respectively.
The source holds these as a separate data set.

In assay [12] the target is T5, W369-hPro1.ECD.His, IL-2Rγ ECD (human, UniProt P31785 23-254).
T5 construct: Entry includes linker and C-terminal 6xHis tag; also called IL-2Rγc; CD132
T5 sequence: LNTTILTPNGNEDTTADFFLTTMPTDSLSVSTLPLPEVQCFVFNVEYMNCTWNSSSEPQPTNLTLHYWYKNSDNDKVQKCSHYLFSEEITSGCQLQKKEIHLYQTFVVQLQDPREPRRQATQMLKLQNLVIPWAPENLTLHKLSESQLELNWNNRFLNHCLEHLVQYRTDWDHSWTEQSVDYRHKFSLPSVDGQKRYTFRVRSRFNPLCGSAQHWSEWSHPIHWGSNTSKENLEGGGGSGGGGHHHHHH
In words: SPR Biacore 8K; variant pre-mixed 1:1 with IL-2Rβ ECD-His, injected over captured IL-2Rγ ECD-His. As to the method:
as §3, §4

Assay [13] addresses T3, Human IL-2Rβ/γ (intermediate affinity …). In words: FACS, HH cells; EC50 fold vs T2U0.E44-1. As to the method:
as §1, §5
The source holds these as a separate data set.

Assay [14] addresses T4, W3XX115-hPro1.ECD.His, IL2Rα ECD. As to the kind of experiment: SPR Biacore 8K; variant captured on anti-human Fc chip, IL-2Rα ECD-His injected. As for the experimental part: as §3, §4

B1: W3XX115-T2U0.E44-33.uIgG4V322 (Fc fusion)
chain: APTSSSTKKTQLQLEHLLLDLQMILNGINNYKNPKLTWMLTFKFYMPKKATELKHLQCLEEELKPLEEVLNLAQSKNFHLRPRDLISNINVIVLELKGSETTFMCEYADETATIVEFLNRWITFCQSILESKYGPPCPPCPAPEAAGGPSVFLFPPKPKDTLMISRTPEVTCVVVDVSQEDPEVQFNWYVDGVEVHNAKTKPREEQFNSTYRVVSVLTVLHQDWLNGKEYKCKVSNKGLPSSIEKTISKAKGQPREPQVYTLPPCQEEMTKNQVSLWCLVKGFYPSDIAVEWESNGQPENNYKTTPPVLDSDGSFFLYSRLTVDKSRWQEGNVFSCSVMHEALHNHYTQKSLSLSLG
heavy: EIQLQQSGPELVKPGASVKVSCKASGYSFTDYNMYWVKQSHGESLEWIGYIDPYNGGTRYNQKFKGKATLTVDKSSSTAFMHLNSLTSEDSAVYYCARNGHWDGAWFAYWGQGTLVTVSAASTKGPSVFPLAPCSRSTSESTAALGCLVKDYFPEPVTVSWNSGALTSGVHTFPAVLQSSGLYSLSSVVTVPSSSLGTKTYTCNVDHKPSNTKVDKRVESKYGPPCPPCPAPEAAGGPSVFLFPPKPKDTLMISRTPEVTCVVVDVSQEDPEVQFNWYVDGVEVHNAKTKPREEQFNSTYRVVSVLTVLHQDWLNGKEYKCKVSNKGLPSSIEKTISKAKGQPREPQVCTLPPSQEEMTKNQVSLSCAVKGFYPSDIAVEWESNGQPENNYKTTPPVLDSDGSFFLVSRLTVDKSRWQEGNVFSCSVMHEALHNHYTQKSLSLSLG
light: DIQMNQSPSSLSASLGDTITITCHASQNINVWLSWYQQKPGNIPKLLIYKASNLHTGVPSRFSGSRSGTGFTLTISSLQPEDIATYYCHQGQSYPFTFGSGTKLEIKRTVAAPSVFIFPPSDEQLKSGTASVVCLLNNFYPREAKVQWKVDNALQSGNSQESVTEQDSKDSTYSLSSTLTLSKADYEKHKVYACEVTHQGLSSPVTKSFNRGEC
As a reminder, the Kd is the free concentration of one partner at which half of the binding sites on the other are occupied at equilibrium, for simple one-to-one binding. Low readings indicate higher affinity, high ones lower affinity. The term EC50 denotes the concentration needed to bring the measured effect to its halfway point. Turning to B1, the figures for the Kd in [1] and in [9] were 5870 nM and 1030 nM, respectively. Also, the EC50 in assay [2] is 627 nM; in assay [6], 760 nM. Besides, in [3], the “Human Treg Potency EC50 (STAT5 phosphorylation)” value stood at 0.42 nM. Besides, the “Human Treg Potency reduction” value in assay [3] turned out to be 302 fold. In [4], the “Human CD8+ T Potency EC50 (STAT5 phosphorylation)” value was determined as 149 nM. Further, the “Human CD8+ T Potency reduction” value in [4] came to 41 fold. Moreover, the values for the Affinity reduction in [5] and in [7] were 13.7 fold and 15 fold, respectively. In addition, in [8], the “fold affinity reduction compared to T2U0.E44-1” value was about 10 fold.

B2: W3XX115-T3U0.E44-1.uIgG4V322 (Fc fusion)
chain: APTSSSTKKTQLQLEHLLLDLQMILNGINNYKNPKLTRMLTAKFAMPKKATELKHLQCLEEELKPLEEVLNGAQSKNFHLRPRDLISNINVIVLELKGSETTFMCEYADETATIVEFLNRWITFCQSIISTLTESKYGPPCPPCPAPEAAGGPSVFLFPPKPKDTLMISRTPEVTCVVVDVSQEDPEVQFNWYVDGVEVHNAKTKPREEQFNSTYRVVSVLTVLHQDWLNGKEYKCKVSNKGLPSSIEKTISKAKGQPREPQVYTLPPCQEEMTKNQVSLWCLVKGFYPSDIAVEWESNGQPENNYKTTPPVLDSDGSFFLYSRLTVDKSRWQEGNVFSCSVMHEALHNHYTQKSLSLSLG
heavy: B1 heavy
light: B1 light
notes: E44 format, IgG4 FALA; also called non-α IL-2
On to B2, for which the Kd in assay [1] stood at 2260 nM. In addition, in assay [10], the “Potency EC50, STAT5 phosphorylation in CD8+ T (column headed Human Treg)” value turned out to be 11.7 nM. In addition, the “Potency reduction, CD8+ T (column headed Human Treg)” value in assay [10] came out at 1 fold. The EC50 in assay [11] turned out to be 29.3 nM; in assay [6], 64.1 nM. The values for the binding result in assay [12] and in assay [14] were “binds” and “no binding”, respectively. For the same molecule, the “Human CD8+ T Potency EC50 (STAT5 phosphorylation)” value in [4] came to 7.87 nM. Moreover, the “Human CD8+ T Potency reduction” value in assay [4] amounted to 2.2 fold. The values for the Affinity reduction in [7] and in assay [13] were 1.3 fold and 0.9 fold, respectively.

Values taken from patent publication US20250000946A1 (WUXI BIOLOGICS IRELAND, published 2025).
